Read-outs that look alike come from different tables or passages of the source.
Tests used:
[1] = tested on: mammary carcinoma cell line MCF-7; test: MTS cell viability assay, mammary carcinoma MCF-7 cells; type: cell-based, human; conditions: for Coefficient for drug interaction (CDI): MCF7 + Zn-rhAFP 1.4 μM (Zn:rhAFP 4:1) + drug, 48 h
Procedure: Effect of binding of Zn ions to rhAFP and sugar-free rhAFPo species was tested by measuring of their dose-dependent tumor-suppressive effect for mammary carcinoma cell line MCF-7 in vitro, as it was earlier described for natural embryonic eAFP (Dudich et al., Eur. J. Biochem. 1999; 266: 750-761). MCF-7 cells were incubated with various doses of rhAFP (rhAFPo), Zn-rhAFP (Zn-rhAFPo) or with natural embryonic eAFP for 48 h, and thereafter their viability was assessed by the colorimetric MTS assay (FIG. 1A).
Cell viability was assessed by the Promega CellTiter 96 AQueous Non-Radioactive Cell Proliferation MTS assay (Promega, USA) according to manufacturer's instructions. Cells were incubated with various AFP samples for 48 h as described above, followed by incubation with MTS-test reagents and measuring of the light adsorption of the formasan, appeared in the lysed cell supernatants at 492 nm by using VICTOR-1420 multilabel counter (Wallac, Finland). Intact cell cultures incubated without additions were taken as a control. By such a way the quantity of viable cells capable to internalize MTS dye was determined. Results were expressed as the mean optical density (OD)±the standard error of the mean triplicate cultures. The extent of cell viability was calculated as an average OD in experimental wells after addition of testing compounds in relation to untreated control wells, that was taken as 100%
To evaluate the efficacy of preparations rhAFP/Ptx and Zn-rhAFP/Ptx we compared the cytotoxic effect of Ptx alone or that in combination with rhAFP or Zn-rhAFP for taxol-resistant human hepatoma HepG2 cells, human breast carcinoma cells MCF-7, and rat glioma C6 cell lines in vitro. RhAFP or Zn-rhAFP were incubated with various doses of Ptx at 37° C. for 1 h to allow complex formation with molecular ratios rhAFP:Ptx 1:1; 1:3 or 1:5 and thereafter the mixtures were introduced into the cell culture for 48 hrs. Cytotoxicity was measured by MTS assay.
Various doses of rhAFP/Ptx complexes were tested for their effectiveness for inhibition of human mammary carcinoma MCF-7, human hepatoma HepG2, and rat glioma C6 tumor cell growth in vitro. First, we optimized drug concentration and rhAFP amount to the extent that it would not generate an extensive cytotoxic effect alone. Then, the cells were seeded in 96-well plates at a density of 3×10^3/well in 100 μl of medium for 24 hrs to allow adherence. The next day, rhAFP or Zn-rhAFP combined with Ptx at the molecular ratios of 1:1; 1:3 or 1:5 were added into the each well. After 48 h of incubation MTS assays were performed to determine survival rate of the cells. All the experiments were repeated at least three times. The results were expressed as mean±standard error (SE).
The coefficient of drug interaction (CDI) was calculated to analyze the effects of rhAFP and Ptx combinations. CDI was calculated by the equation: CDI=SRAFP/drug[…]/SRAFP×SRdrug, where SRAFP/drug is the average survival rate of combination group, and SRAFP or SRdrug are the average survival rates of the single agent groups. According to our evaluation, CDI values <1, =1 or >1 indicate that the combinations are synergistic, additive or antagonistic respectively.
The values of Zn-rhAFP/Ptx or rhAFP/Ptx complex concentration, which inhibited the cell viability by 50% (IC50) when compared to untreated control, were calculated according to the Hill's equation (sigmoid model of concentration-response curve) from the curves of dependence of the relative percentage of viable cells from AFP concentration expressed as mean values from three independent experiments±SD.
In order to confirm the hypothesis that the combination of Zn-rhAFP and various low water-soluble chemotherapeutic agents would reveal increased anti-tumor efficacy, different cytotoxic compounds were tested in combination with Zn-rhAFP for their cell-killing effect in MCF-7 cells in vitro. […]

NF-κB p65 = test: Immunofluorescence of activated NF-κB p65 nuclear translocation in MCF-7 cells; type: cell-based, human; conditions: MCF-7, 2 h treatment
Procedure: The cells were incubated with paclitaxel (10 μM) with addition of Zn-rhAFP (3.0 μM) and/or curcumin (3.0 μM) for 2 h and then assessed for localization of p65 by immunocytochemistry. Activated […] (p65) was detected by treatment of the cells with phospho […] p65 rabbit polyclonal antibody (Cell signaling technologies, USA) followed by secondary goat anti-rabbit Ab-Alexa594 red (Molecular Probes, USA). Cells were visualized at magnification ×400 by fluorescent microscope Axioplan; Zeiss (Germany) equipped with corresponding color filter kits.
The relative amount of p65 in the cytosol and nucleus of the cells was assessed by ImageJ software and was taken as 100% in the control (cytosol+nucleus). Total amount of activated p65 in control untreated cells was taken as 100%. The experimental data are represented as percentage of control±SD from three independent calculations in various observation fields.
MCF-7 cells were seeded on the microscopic plates Lab-Tek™ Chamber Slides (Thermo Fisher Scientific-Nunc, Germany) and cultivated at 37° C. at 5% CO2 atmosphere for 48 h to allow cell adaptation to reach 80% confluence. To test effects of chemotherapeutic preparations on the activation and translocation of NF-κB, cells were treated for 2 h with Ptx (10 nM), curcumin (30 μM); Zn-rhAFP (1.4 μM), or their combination Zn-rhAFP/Ptx/Cur, after which they were fixed with 100% ice-cold acetone. Control cells were incubated without additions and their NF-κB content was taken as 100%. Activated NF-κB was detected by treatment of the cells with phospho NF-κB p65 rabbit polyclonal antibody (Cell signaling technologies, USA) followed by the secondary goat anti-rabbit antibodies Ab-Alexa594 (Molecular Probes, USA). Nuclei were visualized by staining with DAPI (Molecular probes, USA). Cells were visualized at magnification ×400 by fluorescent microscope Axioplan (Zeiss, Germany) equipped with corresponding color filter kits. Distribution throughout the cell of the activated p65 was assessed by the ImageJ software and was taken as 100% in the control samples (cytosol+nucleus).

[2] = tested on: normal CBA mice splenocytes; test: Unspecific toxicity against normal splenocytes, trypan blue staining; conditions: 48 h, standalone protein
Procedure: Zn-rhAFP was prepared in a molecular ratio Zn:rhAFP=4:1. Viable cells were visualized by trypan blue staining. The data are expressed as percentage of viable cells in experimental cell cultures relative to untreated control. Mean of three independent experiments is shown.
Viable cells were visualized by trypan blue staining.

[3] = Adiabatic scanning microcalorimetry of heat denaturation; type: physicochemical; conditions: protein 2.0 mg/ml in PBS pH 7.4; for ΔH (denaturation enthalpy): Zn/rhAFP 4/1, Ptx/rhAFP 1/1, Cur/rhAFP 1:1, error about ±6%; for Tmax (denaturation transition temperature): error ±0.5° C.
[4] = Example 3, MCF-7, 48 h, protein without drug, read-out: IC50, tumor suppressive effect of AFP species standalone
[5] = Example 6, MCF-7, 48 h, protein without Ptx, read-out: cytostatic activity (IC50) standalone against MCF-7 cells

Row | IC50 [1, 4] [µM] | Molecule | Coefficient for drug interaction (CDI) [1] | ΔT1/2 (half width of the denaturation transition peak) [3] [°C] | ΔH (denaturation enthalpy) [3] [kcal/mol] | Tmax (denaturation transition temperature) [3] [°C] | also measured
1 | – | CC(C)=CCC/C(C)=C/C=C/C(C)=C/C=C/C(C)=C/C=C/C=C(C)/C=C/C=C(C)/C=C/C=C(\C)CCC=C(C)C [Lycopene, lycopene] | 0.71 | – | – | – | –
2 | – | O=c1c(-c2ccc(O)cc2)coc2cc(O)cc(O)c12 [Genistein, genistein] | 0.82 | – | – | – | –
3 | – | COc1cccc2c1C(=O)c1c(O)c3c(c(O)c1C2=O)C[C@@](O)(C(=O)CO)C[C@@H]3O[C@H]1C[C@H](N)[C@H](O)[C@H](C)O1 [Doxorubicin, doxorubicin] | 0.66 | – | – | – | –
4 | – | N.N.[Cl][Pt][Cl] [Cisplatin, cisplatin] | 0.93 | – | – | – | –
5 | – | COc1cc(/C=C/C(=O)CC(=O)/C=C/c2ccc(O)c(OC)c2)ccc1O [Curcumin, curcumin] | 0.88 | – | – | – | effect on activated p65 (RelA) in the cell nucleus (NF-κB p65): significant decrease of activated RelA in the cell nucleus
6 | – | COc1cc([C@@H]2c3cc4c(cc3[C@@H](O[C@@H]3O[C@@H]5CO[C@@H](C)O[C@H]5[C@H](O)[C@H]3O)[C@H]3COC(=O)[C@H]23)OCO4)cc(OC)c1O [Etoposide, etoposide] | 0.86 | – | – | – | –
7 | – | Oc1ccc(C=Cc2cc(O)cc(O)c2)cc1 [Resveratrol, resveratrol] | 0.72 | – | – | – | –
8 | 2.5 | Zn-rhAFP: complex of rhAFP with Zn ions, prepared with 4-fold molar excess of ZnCl2 followed by dialysis (protein, UniProt P02771 19-609, looked up, zinc ion complex) Alpha-fetoprotein: RTLHRNEYGIASILDSYQCTAEISLADLATIFFAQFVQEATYKEVSKMVKDALTAIEKPTGDEQSSGCLENQLPAFLEELCHEKEILEKYGHSDCCSQSEEGRHNCFLAHKKPTPASIPLFQVPEPVTSCEAYEEDRETFMNKFIYEIARRHPFLYAPTILLWAARYDKIIPSCCKAENAVECFQTKAATVTKELRESSLLNQHACAVMKNFGTRTFQAITVTKLSQKFTKVNFTEIQKLVLDVAHVHEHCCRGDVLDCLQDGEKIMSYICSQQDTLSNKITECCKLTTLERGQCIIHAENDEKPEGLSPNLNRFLGDRDFNQFSSGEKNIFLASFVHEYSRRHPQLAVSVILRVAKGYQELLEKCFQTENPLECQDKGEEELQKYIQESQALAKRSCGLFQKLGEYYLQNAFLVAYTKKAPQLTSSELMAITRKMAATAATCCQLSEDKLLACGEGAADIIIGHLCIRHEMTPVNPGVGQCCTSSYANRRPCFSSLVVDETYVPPAFSDDKFIFHKDLCQAQGVALQTMKQEFLINLVKQKPQITEEQLEAVIADFSGLLEKCCQGQEQEVCFAEEGQKLISKTRAALGV | – | 5.9 | 171 | 74.3 | effect on activated p65 (RelA) in the cell nucleus (NF-κB p65): significant decrease of activated RelA in the cell nucleus; dose-dependent stimulation of growth of the normal splenocytes [2]: 40 % of control; IC50 [1, 5]: 5.2 µM
9 | 3 | eAFP: fetal serum human AFP isolated from human cord serum (protein, UniProt P02771 19-609, looked up) Alpha-fetoprotein: RTLHRNEYGIASILDSYQCTAEISLADLATIFFAQFVQEATYKEVSKMVKDALTAIEKPTGDEQSSGCLENQLPAFLEELCHEKEILEKYGHSDCCSQSEEGRHNCFLAHKKPTPASIPLFQVPEPVTSCEAYEEDRETFMNKFIYEIARRHPFLYAPTILLWAARYDKIIPSCCKAENAVECFQTKAATVTKELRESSLLNQHACAVMKNFGTRTFQAITVTKLSQKFTKVNFTEIQKLVLDVAHVHEHCCRGDVLDCLQDGEKIMSYICSQQDTLSNKITECCKLTTLERGQCIIHAENDEKPEGLSPNLNRFLGDRDFNQFSSGEKNIFLASFVHEYSRRHPQLAVSVILRVAKGYQELLEKCFQTENPLECQDKGEEELQKYIQESQALAKRSCGLFQKLGEYYLQNAFLVAYTKKAPQLTSSELMAITRKMAATAATCCQLSEDKLLACGEGAADIIIGHLCIRHEMTPVNPGVGQCCTSSYANRRPCFSSLVVDETYVPPAFSDDKFIFHKDLCQAQGVALQTMKQEFLINLVKQKPQITEEQLEAVIADFSGLLEKCCQGQEQEVCFAEEGQKLISKTRAALGV | – | 5.8 | 189 | 80.2 | –
10 | 3.5 | rhAFP: glycosylated wild-type recombinant human alpha-fetoprotein secreted by yeast Saccharomyces cerevisiae (protein, UniProt P02771 19-609, looked up, expressed in yeast, glycosylated wild-type recombinant human alpha-fetoprotein secreted by yeast Saccharomyces cerevisiae) Alpha-fetoprotein: RTLHRNEYGIASILDSYQCTAEISLADLATIFFAQFVQEATYKEVSKMVKDALTAIEKPTGDEQSSGCLENQLPAFLEELCHEKEILEKYGHSDCCSQSEEGRHNCFLAHKKPTPASIPLFQVPEPVTSCEAYEEDRETFMNKFIYEIARRHPFLYAPTILLWAARYDKIIPSCCKAENAVECFQTKAATVTKELRESSLLNQHACAVMKNFGTRTFQAITVTKLSQKFTKVNFTEIQKLVLDVAHVHEHCCRGDVLDCLQDGEKIMSYICSQQDTLSNKITECCKLTTLERGQCIIHAENDEKPEGLSPNLNRFLGDRDFNQFSSGEKNIFLASFVHEYSRRHPQLAVSVILRVAKGYQELLEKCFQTENPLECQDKGEEELQKYIQESQALAKRSCGLFQKLGEYYLQNAFLVAYTKKAPQLTSSELMAITRKMAATAATCCQLSEDKLLACGEGAADIIIGHLCIRHEMTPVNPGVGQCCTSSYANRRPCFSSLVVDETYVPPAFSDDKFIFHKDLCQAQGVALQTMKQEFLINLVKQKPQITEEQLEAVIADFSGLLEKCCQGQEQEVCFAEEGQKLISKTRAALGV | – | 7.0 | 166 | 71.9 | dose-dependent stimulation of growth of the normal splenocytes [2]: 40 % of control; IC50 [1, 5]: 6.1 µM

Reference: patent US20160367515A1, “Improved delivery of poorly water soluble drugs with aphafetoprotein stabilized with metal ions” (Oy Safemed Ltd., priority 2013, published 2016)
